Laboratory results: PMC7768477 (Antibodies, 2020)

B1: sdAb E10 (VHH)
VHH: DVQLQASGGGLVQAGASLRLSCAASGFTYTMGWFRQAPGQEREFVAAIARSGGTTYYTDSVKGRFTISRDNAKKTVFLQLNSLKPEDTAVYYCAADALPYSAQSMSTRNPGYWGQGTQVTVSS
notes: source: E. coli Tuner (DE3), periplasmic, purified (osmotic shock, IMAC, gel filtration)
B2: sdAb E1 (VHH)
VHH: DVQLQASGGGLVQTGGSLRLSCENSGRALRIMGWFRQAPGKEREFVATINRNGESTYYSDSVKGRFTISRDNNKNTVYLQMNNLKPEDTGVYNCAADRPGPTQIKTRADDYDYWGEGTQVTVSS
notes: also called clone E1; source: E. coli Tuner (DE3), periplasmic, purified (osmotic shock, IMAC, gel filtration)
B3: sdAb B5 (VHH)
VHH: EVQLQASGGGLAQPGGSLRLSCAASGFTLVYYGIGWFRQAPGKEREGVSCISSNDGSTYYADSVKGRFTISRDAAKNTVYLQMNSLKPEDTAVYYCATELGNTHRGSFFPNRRVERCRTDDFASWGQGTQVTVSS
notes: as for B1
B4: sdAb F3 (VHH)
VHH: DVQLQASGGGLVQPGGSLRLSCAASGFTLVYYGIGWFRQAPGKEREGVSCISSYDGTTYYADSVKGRFTISRDNAKNTVYLQMNSLKPEDTAVYYCATELGNTHRGSYFPKQRVERCHTGDFASWGQGTQVTVSS
notes: as for B1
B5: sdAb C7 (VHH)
VHH: EVQLQASGGGLVQPGGSLRLSCVASGFTLVYYGIGWFRQAPGKEREGVSCISSNDGSTYYADSVKGRFTISRDAAKNTMYLQMNSLKPEDTAVYYCATELGNTHRGSFFPNRRVERCRTDDFASWGQGTQVTVSS
notes: as for B1
B6: sdAb H6 (VHH)
VHH: DVQLQASGGGVVQPGGSLRLSCVASGFTLVYYGIGWFRQAPGKEREGVSCISSNDGSTYYADSVKGRFTISRDAAKNTVYLQMNSLKPEDTAVYYCATELGNTHRGSFFPNRRVKRCRTDDFASWGQGTQVTVSS
notes: also called clone H6; Bt-H6; source: E. coli Tuner (DE3), periplasmic, purified (osmotic shock, IMAC, gel filtration)
B7: sdAb E11 (VHH)
VHH: EVQLQASGGGLAQPGGSLRLSCAASGFTLVYYGIGWFRQAPGKEREGVSCISSNDGTTYYADSVKGRFTISRDNAKNTVYLQMNSLKPEDTAVYYCATELGNTHRGSYFPKQRVERCHTGDFASWGQGTQVTVSS
notes: as for B1
B8: sdAb G11 (VHH)
VHH: DVQLQASGGGLVQAGDSLTLSCAASGRTVSPYGVGWFRQAPGREREFVAALSRSGTFTAYADSVKGRFTISRDNAKNTVYLQMNSLKPDDTAVYHCAARSASSYYSTYRKEDDYHYWGQGTQVTVSS
notes: as for B1

Tests used:
[1] = target: T1, Lassa NPn (N-terminal portion of NP encoding residues 1-340) (Lassa virus lineage IV, strain Josiah, UniProt P13699); experiment: SPR; ProteOn XPR36; […] (20 ug/mL in 10 mM sodium acetate pH 5.0); […]; Langmuir model; conditions: both partners purified
T1 construct: source: bought: Zalgen (recombinant)

[2] = target: T2, Lassa NPc (C-terminal portion of NP encoding residues 341-569) (Lassa virus lineage IV, strain Josiah, UniProt P13699); experiment: SPR; ProteOn XPR36; […] (20 ug/mL in 10 mM sodium acetate pH 5.0); […]; conditions: both partners purified
T2 construct: source: bought: Zalgen (recombinant)
T2 sequence (P13699 341-569): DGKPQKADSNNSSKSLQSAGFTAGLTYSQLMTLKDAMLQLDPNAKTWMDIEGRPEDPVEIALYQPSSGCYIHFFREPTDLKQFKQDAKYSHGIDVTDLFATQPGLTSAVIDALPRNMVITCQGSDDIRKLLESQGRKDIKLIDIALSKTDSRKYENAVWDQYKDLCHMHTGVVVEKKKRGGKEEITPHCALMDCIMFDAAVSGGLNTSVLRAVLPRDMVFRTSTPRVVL

T1 sequence (P13699 1-340): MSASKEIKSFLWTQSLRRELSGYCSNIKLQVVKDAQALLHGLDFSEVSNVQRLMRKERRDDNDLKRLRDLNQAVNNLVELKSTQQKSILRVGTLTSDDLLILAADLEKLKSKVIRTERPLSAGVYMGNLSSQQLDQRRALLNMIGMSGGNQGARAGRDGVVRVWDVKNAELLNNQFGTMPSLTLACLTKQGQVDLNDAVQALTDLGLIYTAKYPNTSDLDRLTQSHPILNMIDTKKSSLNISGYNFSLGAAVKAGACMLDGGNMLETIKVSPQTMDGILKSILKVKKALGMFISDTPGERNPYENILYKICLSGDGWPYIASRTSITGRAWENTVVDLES

| Binder | Kd [1] | koff [1] | kon [1] | binding result [2] | binding result [1] |
| --- | --- | --- | --- | --- | --- |
| B1 | 69 nM | 0.13 s⁻¹ | 1.9e+06 M⁻¹ s⁻¹ | no binding | – |
| B2 | – | – | – | no binding | no binding |
| B3 | 19 nM | 0.0061 s⁻¹ | 320000 M⁻¹ s⁻¹ | no binding | – |
| B4 | 7.5 nM | 0.003 s⁻¹ | 400000 M⁻¹ s⁻¹ | no binding | – |
| B5 | 7.5 nM | 0.0038 s⁻¹ | 510000 M⁻¹ s⁻¹ | no binding | – |
| B6 | 9.3 nM | 0.0057 s⁻¹ | 610000 M⁻¹ s⁻¹ | no binding | – |
| B7 | 57 nM | 0.0076 s⁻¹ | 150000 M⁻¹ s⁻¹ | no binding | – |
| B8 | 184 nM | 0.07 s⁻¹ | 380000 M⁻¹ s⁻¹ | no binding | – |
